Laboratory results reported in US20040142381A1, “Methods for designing IGF1 receptor modulators for therapeutics” (priority 2002, published 2004).

T1: synthetic peptide KKKSPGEYVNIEFG, based on the IRS-1 phosphorylation site Tyr 895
T1 sequence: KKKSPGEYVNIEFG

T2: synthetic peptide substrate KKEEEEYMMMMG
T2 sequence: KKEEEEYMMMMG


How the values were obtained:
[1] = test system: T1, synthetic peptide KKKSPGEYVNIEFG, based on the IRS-1 phosphorylation site Tyr 895
[2] = test system: T2, synthetic peptide substrate KKEEEEYMMMMG
[3] = molecular target: synthetic peptide substrate …; experiment: cell-based or functional assay
[4] = substrate: CC[C@H](C)[C@H](NC(=O)[C@H](CC(N)=O)NC(=O)[C@@H](NC(=O)[C@H](Cc1ccc(O)cc1)NC(=O)[C@H](CCC(=O)O)NC(=O)CNC(=O)[C@@H]1CCCN1C(=O)[C@H](CO)NC(=O)[C@H](CCCCN)NC(=O)[C@H](CCCCN)NC(=O)[C@@H](N)CCCCN)C(C)C)C(=O)N[C@@H](CCC(=O)O)C(=O)N[C@@H](Cc1ccccc1)C(=O)NCC(=O)O; experiment: Km of IRS-1 Tyr 895-derived peptide substrate for IGF1RK; format: biochemical, human; details: other: peptide as substrate of IGF1RK

Molecule	Peptide Km [2]	also measured
IGF1RK (phosphorylation state not stated)		Km [1]: The Km for this peptide was determined to be 128 µM for IGF1RK
IGF1RK, mono-phosphorylated form (1P)	620 µM	
IGF1RK, bis-phosphorylated form (2P)	130 µM	
IGF1RK, unphosphorylated form (0P): tyrosine kinase domain of the human insulin-like growth factor 1 receptor, residues 956-1,256	1300 µM	induction time of autophosphorylation at varying enzyme concentration (continuous spectrophotometric assay): the phosphorylation reaction was concentration dependent
IGF1RK, tris-phosphorylated, activated form (3P)	120 µM	
IGF1RK, tris-phosphorylated, activated form (3P) (enzyme)		Km for peptide ([γ-32P]ATP and phosphocellulose binding assay) [3]: 150 µM
IGF1RK (Homo sapiens) (protein, encoding residues 956-1,256 of the human insulin-like growth factor 1 receptor (IGF1RK); made in house; host or cells: Spodoptera frugiperda (Sf9) cells, baculovirus) VYVPDEWEVAREKITMSRELGQGSFGMVYEGVAKGVVKDEPETRVAIKTVNEAASMRERIEFLNEASVMKEFNCHHVVRLLGVVSQGQPTLVIMELMTRGDLKSYLRSLRPEMENNPVLAPPSLSKMIQMAGEIADGMAYLNANKFVHRDLAARNCMVAEDFTVKIGDFGMTRDIYETDYYRKGGKGLLPVRWMSPESLKDGVFTTYSDVWSFGVVLWEIATLAEQPYQGLSNEQVLRFVMEGGLLDKPDNCPDMLFELMRMCWQYNPKMRPSFLEIISSIKEEMEPGFREVSFYYSEENK		Km [4]: 128 µM
